In US20230080534A1 (SHANGHAI BIOTROY BIOTECHNIQUE, published 2023):
Where a chain is given by its changes, count along the chain named. No end group written: not given here.

T1: human CD27 (HA-tagged, expressed in HEK293 cells) (human, UniProt P26842 20-260, limits assumed)
T1 construct: Plasmid printed as 'pcDNA3-HA-CD2'; not shown: HA tag
T1 sequence (looked up): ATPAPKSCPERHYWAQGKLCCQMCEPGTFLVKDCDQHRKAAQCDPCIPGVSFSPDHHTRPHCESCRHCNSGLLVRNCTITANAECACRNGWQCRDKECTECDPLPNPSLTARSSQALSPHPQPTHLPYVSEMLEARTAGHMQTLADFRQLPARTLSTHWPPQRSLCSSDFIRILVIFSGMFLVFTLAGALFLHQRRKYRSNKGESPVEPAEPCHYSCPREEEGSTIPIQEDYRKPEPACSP

T2: BSA-conjugated human SEMG2 (497-509) polypeptide (human, also: coupled to BSA, site not given here)
T2 peptide: QIEKLVEGKSQIQ

T3: human SEMG2 full-length protein (human, UniProt Q02383 24-582, limits assumed)
T3 construct: also called SEMG2 protein; semenogelin 2
T3 sequence: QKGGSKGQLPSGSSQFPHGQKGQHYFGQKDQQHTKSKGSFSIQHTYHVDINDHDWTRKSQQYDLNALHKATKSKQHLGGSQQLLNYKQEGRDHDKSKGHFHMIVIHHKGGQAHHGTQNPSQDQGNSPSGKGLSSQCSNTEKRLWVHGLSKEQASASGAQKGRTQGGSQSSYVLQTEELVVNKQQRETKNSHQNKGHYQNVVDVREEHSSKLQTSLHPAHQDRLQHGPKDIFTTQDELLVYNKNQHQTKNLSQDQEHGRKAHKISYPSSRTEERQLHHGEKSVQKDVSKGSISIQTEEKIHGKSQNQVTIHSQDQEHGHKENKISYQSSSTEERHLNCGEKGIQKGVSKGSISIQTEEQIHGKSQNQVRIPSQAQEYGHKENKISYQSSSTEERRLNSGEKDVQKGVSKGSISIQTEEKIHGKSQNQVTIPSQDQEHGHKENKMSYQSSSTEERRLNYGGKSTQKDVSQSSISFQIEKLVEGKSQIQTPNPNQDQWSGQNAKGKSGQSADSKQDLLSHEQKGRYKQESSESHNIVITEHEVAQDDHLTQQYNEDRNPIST

B1: SEMG2-P4 fused with GFP (other)
chain: EYGHKENKISYQSSSTEERRLNSGEKDVQKGVSKGSISIQTEEKIHGKSQNQVTIPSQDQEHGHKENKMSYQSSSTEERRLNYGGKSTQKDVSQSSIS
notes: not shown: GFP fusion partner
B2: H88-67 (antibody, V domains shown)
VH: QVQLLESGGGVVQPGRSLRLSCAASGFTFSSYAMHWVRQAPGKGLEWVAVISYDGSNKYYADSVKGRFTISRDNSKNTLYLQMNSLRAEDTAVYYCARMDGSGSPDYWGQGTLVTVSS
VL: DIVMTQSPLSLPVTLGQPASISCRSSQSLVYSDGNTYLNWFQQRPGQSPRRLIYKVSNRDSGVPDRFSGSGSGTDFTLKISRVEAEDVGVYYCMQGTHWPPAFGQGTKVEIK
notes: Fully human full-length antibody built from a phage Fab
B3: SEMG2-P3 fused with GFP (other)
chain: KAHKISYPSSRTEERQLHHGEKSVQKDVSKGSISIQTEEKIHGKSQNQVTIHSQDQEHGHKENKISYQSSSTEERHLNCGEKGIQKGVSKGSISIQTEEQIHGKSQNQVRIPSQAQ
notes: not shown: GFP fusion partner
B4: SEMG2-P6 fused with GFP (other)
chain: EQKGRYKQESSESHNIVITEHEVAQDDHLTQQYNEDRNPIST
modifications: also: fused to GFP, variant, linker and side of fusion not given here
notes: not shown: GFP fusion partner
B5: MM05V4V2 (antibody, V domains shown)
VH: QVQLVQSGAEVKKPGASVKVSCKASGYTFTSYWMNWVRQAPGQGLEWVGMIDPSDSETHYAQKFQGRVTITADKSTSTVYMELSSLRSEDTAVYYCARYLGGKEGSFDYWGQGTLVTVSS
VL: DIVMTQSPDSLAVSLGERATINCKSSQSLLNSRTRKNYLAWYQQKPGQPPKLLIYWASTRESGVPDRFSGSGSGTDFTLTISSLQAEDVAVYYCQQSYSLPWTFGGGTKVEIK
notes: humanized MM05 antibody, one member of the group m49
B6: MM05V3V2 (antibody, V domains shown)
VH: B5 VH with A72V
VL: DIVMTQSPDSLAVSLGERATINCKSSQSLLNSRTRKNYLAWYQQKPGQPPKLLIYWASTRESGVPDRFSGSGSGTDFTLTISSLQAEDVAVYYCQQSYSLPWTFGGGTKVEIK
notes: as for B5
B7: MM05V4V1 (antibody, V domains shown)
VH: B5 VH
VL: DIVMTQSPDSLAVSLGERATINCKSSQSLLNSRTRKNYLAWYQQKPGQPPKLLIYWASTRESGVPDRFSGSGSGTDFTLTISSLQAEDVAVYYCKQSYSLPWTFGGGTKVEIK
notes: as for B5
B8: 96-10V-10 (antibody, V domains shown)
VH: QVQLLESGGGLVQPGGSLRLSCSASGFTFSSYAMHWVRQAPGKGLEYVSAISSNGGSTYYADSVKGRFTISRDNSKNTLYLQMSSLRAEDTAVYYCVIEGGSTGSTVSGAFDIWGQGTMVTVSS
VL: DIQMIQSPPSVSASVGDTVTIACRANQGIDSWLAWYQQKPGRAPKLLIYSASRLQSGVPSRFSGGGSGTDFALTISNLQPEDFATYYCQQALSLPITFGQGTRLEIK
B9: H88-96 (antibody, V domains shown)
VH: B8 VH with G104T, S105G, V107T
VL: B8 VL
notes: as for B2

Key:
[1] = target: T1, human CD27 (HA-tagged, expressed in …); assay: co-immunoprecipitation, HEK293 co-transfection
Procedure: In co-immunoprecipitation experiment, cells were lysed in IP buffer (Thermo Scientific) and Roche complete protease inhibitor for 10 minutes, followed by the addition of benzonase (sigma) for 25 minutes at room temperature. The lysate was then centrifuged at 15,000 rpm at 4° C. to remove the precipitate. The supernatant was then incubated with primary antibody slowly rotated overnight at 4° C., followed by the addition of protein A or protein G dynabeads and incubated at 4° C. for 2 hours, washed for 4 times in PBST (PBS with 0.01% Tween 20), eluted with 50 mM DTT in SDS sample buffer for 10 minutes at 100° C., separated with SDS, and immunoblotted as previously described.
To further confirm which part of SEMG-2 binds to CD27, fragments of SEMG2 protein were designed. The amino acid sequence of full-length SEMG2 protein (SEQ ID NO:1) was divided into 6 segments of sequences, fused with GFP and named as SEMG2-P1, SEMG2-P2, SEMG2-P3, SEMG2-P4, SEMG2-P5 and SEMG2-P6 (See Table 1 for specific sequences, with corresponding abbreviation as P1-P6 respectively). Plasmids expressing these amino acid sequences were co-transfected with CD27 into HEK293 cells, and co-immunoprecipitation experiments were performed to identify the main fragment of SEMG2 that binds to CD27.

[2] = target: T2, BSA-conjugated human SEMG2 (497-509) …; assay: ELISA on BSA-S2 (497-509); curve without upper plateau; the EC50 table prints no unit, the axis is log (antibody concentration, nM)
[3] = target: T3, human SEMG2 full-length protein; assay: ELISA on SEMG2; the EC50 table prints no unit, the axis is log (antibody concentration, nM)
[4] = target: T3, human SEMG2 full-length protein; assay: as above; remark: listed apart in the source
[5] = target: T3, human SEMG2 full-length protein; assay: biolayer interferometry (ForteBio Blitz or Gator)
Procedure: The equilibrium dissociation constant (KD) of the antibody of the present invention binding to human SEMG2 was determined by biolayer interferometry (ForteBio Bltz or Gator instrument). […] 100 μl of SD buffer, antibody and SEMG2 were added to a 96-well black polystyrene half area microplate, respectively. Select the sensor location based on the sample location layout. KD values were analyzed using molecular interaction analysis software. In the experiments of the assays, the affinity constants of murine monoclonal antibodies and human antibodies H88-67, H88-93 and H88-96 are shown in Table 8, and the affinity and dissociation curves of SEMG2 and corresponding proteins are shown in FIG. 25.

[6] = target: T3, human SEMG2 full-length protein; assay: ELISA on SEMG2 protein; the EC50 table prints no unit, the axis is log (antibody concentration, nM)
[7] = target: T3, human SEMG2 full-length protein; assay: ELISA on SEMG2; the EC50 table prints no unit, the axis is log (antibody concentration, nM); remark: listed apart in the source
[8] = target: T3, human SEMG2 full-length protein; assay: ELISA (FIG. 21B-D)
[9] = target: T2, BSA-conjugated human SEMG2 (497-509) …; assay: ELISA (FIG. 21B-D)

| Binder | binding result [1] | EC50 [2] | EC50 [6] | also measured |
| --- | --- | --- | --- | --- |
| B1 | no binding | – | – | – |
| B2 | – | 57.5 nM | – | EC50 [3]: 0.863 nM; EC50 [4]: 2.13 nM; Kd [5]: 28.4 nM |
| B3 | no binding | – | – | – |
| B4 | no binding | – | – | – |
| B5 | – | – | 0.18 nM | – |
| B6 | – | – | 0.092 nM | – |
| B7 | – | – | 0.123 nM | – |
| B8 | – | 32.2 nM | – | EC50 [7]: 0.358 nM; fold higher affinity than the parent antibody (H88-96) [8]: > 10 fold; fold higher affinity than the parent antibody (H88-96) [9]: > 10 fold |
| B9 | – | 95.7 nM | – | EC50 [3]: 9.3 nM; EC50 [7]: 14 nM; Kd [5]: 14 nM |
